Assay [1] concerns the target AD-CaM (Calmodulin, encoded by the CALM2 gene, fused to the activation domain) (human) (UniProt P0DP24). Briefly: cell-based or functional assay.
The target is the same in assay [2]. Briefly: yeast two-hybrid, CPRG β-gal assay, against DB-Q2C wt.

Sequence of DB-KCNQ2 wild-type (wt) C-term BAIT (O43526 other isoform, or with tags, fused parts or gaps limits assumed): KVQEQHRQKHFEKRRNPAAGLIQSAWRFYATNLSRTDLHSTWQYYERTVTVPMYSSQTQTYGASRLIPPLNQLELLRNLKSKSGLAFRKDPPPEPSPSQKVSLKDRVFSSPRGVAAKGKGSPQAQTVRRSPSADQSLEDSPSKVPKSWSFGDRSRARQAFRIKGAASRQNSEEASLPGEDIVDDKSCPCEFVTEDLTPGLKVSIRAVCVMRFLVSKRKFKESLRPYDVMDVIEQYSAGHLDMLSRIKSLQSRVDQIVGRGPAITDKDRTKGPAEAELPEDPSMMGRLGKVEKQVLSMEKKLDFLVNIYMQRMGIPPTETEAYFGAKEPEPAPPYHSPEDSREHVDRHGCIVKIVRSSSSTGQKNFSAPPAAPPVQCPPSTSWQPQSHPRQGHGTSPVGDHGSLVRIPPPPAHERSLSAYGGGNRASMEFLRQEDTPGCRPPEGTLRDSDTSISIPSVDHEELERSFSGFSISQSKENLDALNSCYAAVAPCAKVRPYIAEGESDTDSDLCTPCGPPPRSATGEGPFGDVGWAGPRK

As for “DB-Q2C L619R mutant (from UniProt O43526 319-872)”, in assay [1], the units of β-gal activity (CPRG assay, liquid culture) (units β-gal activity) was determined as 0.26. The substance also registered a fold increase in CaM binding affinity against wt in assay [2] of 5 fold.
For “DB-KCNQ2 wild-type (wt) C-term BAIT (from UniProt O43526 319-872)”, the units of β-gal activity (CPRG assay, liquid culture) (units β-gal activity) in assay [1] was determined as 0.05.
